Data published in paper PMC9313153, “Supramolecular Enzymatic Labeling for Aptamer Switch-Based Electrochemical Biosensor”.

Molecular target: carcinoembryonic antigen (CEA) (UniProt P06731 35-685)
Assay: amperometric aptasensor (electrode-immobilized aptamer, HRP-CD label); HRP-CD, H2O2; detection range 10 pg/mL to 1 ng/mL, LOD 3.1 pg/mL (not a Kd); Aptamer electrode washed in 20 mM Tris-HCl pH 7.4, 100 mM NaCl, 5 mM MgCl2; casein block; read-out in 0.1 M sodium phosphate pH 7.4 with H2O2; CEA incubation buffer and temperature not in the material
Details: protein: commercial; label: 5' thiol on gold nanoparticles; 3' adamantane for HRP-cyclodextrin; hairpin

carcinoembryonic antigen (CEA), sequence (P06731 35-685): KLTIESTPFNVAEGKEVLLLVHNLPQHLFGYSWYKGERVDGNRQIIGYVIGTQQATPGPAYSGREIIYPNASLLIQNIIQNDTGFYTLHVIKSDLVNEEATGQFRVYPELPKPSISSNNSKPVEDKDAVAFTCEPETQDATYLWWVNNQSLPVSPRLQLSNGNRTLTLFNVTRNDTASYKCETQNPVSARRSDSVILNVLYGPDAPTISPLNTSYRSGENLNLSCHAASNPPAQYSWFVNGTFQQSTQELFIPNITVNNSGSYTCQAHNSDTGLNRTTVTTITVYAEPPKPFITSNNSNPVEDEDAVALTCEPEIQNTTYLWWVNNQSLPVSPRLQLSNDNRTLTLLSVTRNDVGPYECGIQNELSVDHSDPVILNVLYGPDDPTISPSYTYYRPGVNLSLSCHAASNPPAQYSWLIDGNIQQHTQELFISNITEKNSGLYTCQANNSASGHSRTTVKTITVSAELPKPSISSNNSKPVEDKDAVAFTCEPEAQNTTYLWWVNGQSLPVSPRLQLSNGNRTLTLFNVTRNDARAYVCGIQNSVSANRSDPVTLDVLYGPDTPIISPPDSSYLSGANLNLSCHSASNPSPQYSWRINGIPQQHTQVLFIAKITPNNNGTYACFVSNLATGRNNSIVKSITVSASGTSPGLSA

B1: Apt-ADA (anti-CEA aptamer) (structured_DNA)
DNA: CCACGATACCAGCTTATTCAATTCGTGG
modifications: 5'-HS-(CH2)6; 3'-(CH2)6-NH2 converted to adamantane (ADA)
**Q.** Does B1 bind?
**A.** binds
